Test results: the supplement of paper PMC10567573

B1: GLTSCR2 (parent)
chain: YNPSFEDHQTLLSAAHEVELQRQK

Variants of: B1
Test: protein stability index of a GFP-peptide fusion (GPS, HEK-293T) (PSI 1-6); higher = more stable
Conditions: c terminus: a fixed tail appended
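Also: lentivirally expressed fusions sorted by FACS into six bins by GFP to DsRed ratio, PSI derived from sequencing read proportions per bin multiplied by bin number.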

Protein stability index, by site and new letter:
A14: T 4.04; D 4.29; I 3.02; P 4.08; G 3.52; V 3.41; Q 3.86; N 4.04; E 4.63; K 3.92; M 3.62; L 3.09; S 4.2; R 3.48; Y 2.65; H 3.64; W 2.51; F 2.53; C 2.53
T10: C 3.19; Q 3.47; F 2.61; S 3.94; D 4.32; M 2.87; K 2.35; H 3.37; L 2.71; P 3.7; Y 3.03; N 4.01; W 2.65; A 3.39; V 3.53; I 3.05; E 4.44; G 3.87; R 2.59
Y1: Q 5.07; G 5.36; F 3.65; S 5.38; K 4.87; L 5.03; N 4.71; H 5.16; I 4.74; M 4.96; D 5.25; R 5.37; V 5.11; P 5.16; T 4.67; W 4.16; E 4.87
V18: L 3.69; F 3.1; K 4.14; M 3.65; G 3.79; P 4.41; I 3.67; H 3.28; A 4; N 3.8; C 3.65; D 4.13; E 4.44
A15: N 3.85; Y 3.48; D 4.54; L 2; E 4.53; G 4.28; I 2.29; C 3.3; R 3.56; T 3.75; S 4.07; Q 3.82; V 2.53; H 3.56; K 3.96; P 3.61; W 2.3; F 2.47; M 2.93
H16: Y 3.34; T 3.93; A 3.64; C 3.28; G 4.16; M 3.63; S 4.45; V 2.97; E 4.38; Q 3.48; P 4.19; L 3.22; I 2.53; D 4.43; F 2.91; R 3.2; N 3.92; K 3.51; W 2.51
P3: T 5.01; I 3.82; K 4.3; W 1.9; H 4.67; L 4.3; V 3.73; F 4.06; C 3.37; G 4.35; R 3.85; N 4.45; D 4.32; A 4.25; M 4.08; E 5.06; Y 3.97; S 4.28; Q 5.13
D7: L 3.35; Q 4.27; E 3.46; V 2.92; C 4.08; S 4.11; N 3.98; T 3.55; M 3.23; G 4.17; K 3.62; I 3.21; R 3.7; H 3.67; W 1.92; A 3.72; P 4.13; F 2.81; Y 3.52
H8: G 4.05; V 2.33; C 2.67; D 4.81; A 3.79; L 2.22; W 1.88; I 2.53; Q 3.84; K 3.62; P 3.86; M 2.72; T 3.11; N 4.29; F 1.99; S 4.2; Y 1.54; E 4.4; R 3.66
S13: R 2.56; A 3.21; W 1.51; I 2.45; N 3.66; L 2.9; Y 2.75; Q 3.66; K 2.58; C 3.25; T 4.17; G 3.29; E 3.2; F 2.66; H 3.47; V 3.2; D 3.88; P 4.2; M 3.08
E17: N 3.33; G 2.94; V 2.83; M 3.29; F 2.45; R 3.4; K 3.43; A 3.15; D 3.85; L 2.96; T 3.36; H 2.78; S 3.43; Y 2.51; C 2.88; Q 2.94; W 2.73; P 3.33; I 3.03
Q9: H 3.68; G 4.42; T 3.56; W 2.2; D 4.5; M 2.72; Y 3.36; R 3.13; K 3.12; I 2.6; C 3.06; S 4.09; L 3.11; E 4.45; V 3.24; A 3.79; F 2.45; N 4.1; P 4.08
F5: I 4.07; K 2.48; M 3.5; Q 4.62; N 4.43; W 3.07; G 4.06; S 3.88; T 4.28; C 4; A 4.22; V 3.83; L 3.43; R 3.96; E 4.9; H 4.09; D 5.24; P 4.02; Y 3.68
S4: F 4; V 4.02; D 4.72; Y 4.27; A 4.1; W 3.67; L 3.95; E 4.72; C 4.07; I 3.82; K 4.17; T 3.79; H 4.26; G 3.88; P 4.69; Q 4.28; M 4.21; R 4.65; N 4.48
E6: N 3.33; K 2.72; D 4.14; H 3.18; F 2.51; S 3.15; I 3.12; G 3.42; A 3.1; P 3.76; T 3.09; Y 2.67; M 2.38; R 2.57; V 3; Q 2.58; C 3.25; L 3.04; W 2.75
N2: P 4.76; K 4.28; W 4.2; L 5.05; D 5.66; I 3.38; T 3.36; G 4.39; R 4.29; F 3.81; Q 4.47; M 4.34; H 2.97; A 2.13; V 1.6; S 3.91; Y 4.29; C 2.74; E 4.46
L12: Y 3.63; E 5.25; W 1.58; D 5.35; A 4.41; K 4.45; R 4.44; V 4.15; M 4.29; H 4.61; C 4.02; I 3.86; G 4.23; P 5.16; S 4.79; T 4.62; Q 4.2; N 4.54; F 2.35
L11: G 4.58; C 4.26; V 3.98; T 5.29; P 4.92; E 5.13; R 4.19; I 2.96; D 5.01; W 2.38; F 2.81; A 4.7; N 4.96; Q 4.88; H 4.57; K 4.71; S 4.95; M 4.19; Y 3.25
